Columns and labels:
[1] = biological target: P08799; assay: sedimentation assembly assay; self-assembly into filaments or paracrystals; 10 uM protein added to an equal volume, 10 mM imidazole pH 7.5, 0.1 mM EDTA, 1 mM DTT, 0-250 mM NaCl, on ice at least 30 min, 132,000 x g 15 min 4 °C; supernatant and pellet by SDS-PAGE; details: other: sedimentation assembly assay
[2] = biological target: the molecule itself; assay: AUC; sedimentation equilibrium; step: single chains to two-stranded coiled coil; 10.5-52 uM protein, 10 mM Tris pH 7.4, 0.1 mM EDTA, 500 mM NaCl, 10 °C, 10,000 rpm; fit to a single non-associating ideal species
[3] = biological target: the molecule itself; assay: sedimentation assembly assay; self-assembly into filaments or paracrystals; 10 uM protein added to an equal volume, 10 mM imidazole pH 7.5, 0.1 mM EDTA, 1 mM DTT, 0-250 mM NaCl, on ice at least 30 min, 132,000 x g 15 min 4 °C; supernatant and pellet by SDS-PAGE

B1: AD-Cterm (3xAsp) myosin-II tail fragment (domain or fragment, Dictyostelium discoideum)
chain: MNVEFIRKKDAEIDDLRARLDRETESRIKSDEDKKNTRKQFADLEAKVEEAQREVVTIDRLKKKLESDIIDLSTQLDTETKSRIKIEKSKKKLEQTLAERRAAEEGSSKAADEEIRKQVWQEVDELRAQLDSERAALNASEKKIKSLVAEVDEVKEQLEDEILAKDKLVKAKRALEVELEEVRDQLEEEEDSRSELEDSKRRLTTEVEDIKKKYDAEVEQNTKLDEAKKKLTDDVDTLKKQLEDEKKKLNESERAKKRLESENEDFLAKLDAEVKNRSRAEKDRKKYEKDLKDDKYKLNDEAADKTQTEIGAAKLEDQIDELRSKLEQEQAKATQADKSKKTLEGEIDNLRAQIEDEGKIKMRLEKEKRALEGELEELRETVEEAEDSKSEAEQSKRLVELELEDARRNLQKEIDAKEIAEDAKSNLQREIVEAKGRLEEESIARTNSDRSRKRLEAEIDALTAQVDAEQKAKNQQIKENKKIETELKEYRKKFGESEKDKTKEFLVVEKLETDYKRAKKEAADEQQQRLTVENDLRKHLSEISLLKDAIDKLQRDHDKTKRELETETASKIEMQRKMADFFGGFKA
notes: N-terminal methionine added before the myosin residues; Dictyostelium myosin-II heavy chain, a.a; 1,531-2,116, aspartic acids in place of the three threonine phosphorylation sites; Phosphomimetic; also called headless AD-Cterm (3xAsp); 3xAsp tail fragment; source: E. coli BL21-CodonPlus (DE3)-RIL, purified (boiling, DEAE, Superdex 200, Mono Q)
- fold difference in solubility against AD-Cterm (3xThr) [1]: eight-fold difference in solubility of full-length unphosphorylated and phosphorylated myosin, respectively, and AD-Cterm (3xThr) and AD-Cterm (3xAsp), respectively
- stoichiometry N [2]: 2

B2: AD-Cterm (3xThr) myosin-II tail fragment (domain or fragment, Dictyostelium discoideum)
chain: MNVEFIRKKDAEIDDLRARLDRETESRIKSDEDKKNTRKQFADLEAKVEEAQREVVTIDRLKKKLESDIIDLSTQLDTETKSRIKIEKSKKKLEQTLAERRAAEEGSSKAADEEIRKQVWQEVDELRAQLDSERAALNASEKKIKSLVAEVDEVKEQLEDEILAKDKLVKAKRALEVELEEVRDQLEEEEDSRSELEDSKRRLTTEVEDIKKKYDAEVEQNTKLDEAKKKLTDDVDTLKKQLEDEKKKLNESERAKKRLESENEDFLAKLDAEVKNRSRAEKDRKKYEKDLKDTKYKLNDEAATKTQTEIGAAKLEDQIDELRSKLEQEQAKATQADKSKKTLEGEIDNLRAQIEDEGKIKMRLEKEKRALEGELEELRETVEEAEDSKSEAEQSKRLVELELEDARRNLQKEIDAKEIAEDAKSNLQREIVEAKGRLEEESIARTNSDRSRKRLEAEIDALTAQVDAEQKAKNQQIKENKKIETELKEYRKKFGESEKTKTKEFLVVEKLETDYKRAKKEAADEQQQRLTVENDLRKHLSEISLLKDAIDKLQRDHDKTKRELETETASKIEMQRKMADFFGGFKA
notes: N-terminal methionine added before the myosin residues; Dictyostelium myosin-II heavy chain, a.a; 1,531-2,116 (assembly domain through C terminus); the assembly rows are about coiled coils joining into paracrystals; also called headless AD-Cterm (3xThr); wild-type tail fragment; source: E. coli BL21-CodonPlus (DE3)-RIL, purified (boiling, DEAE, Superdex 200, Mono Q)
- stoichiometry N [2]: 2

B3: Ala1-Cterm (3xThr) (domain or fragment, Dictyostelium discoideum)
chain: MLDEIKRQYADVVSSRDKSVEQLKTLQAKNEELRNTAEEAEGQLDRAERSKKKAEFDLEEAVKNLEEETAKKVKAEKAMKKAETDYRSTKSELDDAKNVSSEQYVQIKRLNEELSELRSVLEEADERCNSAIKAKKTAESALESLKDEIDAANNAKAKAERKSKELEVRVAELEESLEDKSGTVNVEFIRKKDAEIDDLRARLDRETESRIKSDEDKKNTRKQFADLEAKVEEAQREVVTIDRLKKKLESDIIDLSTQLDTETKSRIKIEKSKKKLEQTLAERRAAEEGSSKAADEEIRKQVWQEVDELRAQLDSERAALNASEKKIKSLVAEVDEVKEQLEDEILAKDKLVKAKRALEVELEEVRDQLEEEEDSRSELEDSKRRLTTEVEDIKKKYDAEVEQNTKLDEAKKKLTDDVDTLKKQLEDEKKKLNESERAKKRLESENEDFLAKLDAEVKNRSRAEKDRKKYEKDLKDTKYKLNDEAATKTQTEIGAAKLEDQIDELRSKLEQEQAKATQADKSKKTLEGEIDNLRAQIEDEGKIKMRLEKEKRALEGELEELRETVEEAEDSKSEAEQSKRLVELELEDARRNLQKEIDAKEIAEDAKSNLQREIVEAKGRLEEESIARTNSDRSRKRLEAEIDALTAQVDAEQKAKNQQIKENKKIETELKEYRKKFGESEKTKTKEFLVVEKLETDYKRAKKEAADEQQQRLTVENDLRKHLSEISLLKDAIDKLQRDHDKTKRELETETASKIEMQRKMADFFGGFKA
notes: N-terminal methionine added before the myosin residues; Dictyostelium myosin-II heavy chain, a.a; 1,348-2,116 (Ala 1 through C terminus); also called headless Ala1-Cterm (3xThr); source: E. coli BL21-CodonPlus (DE3)-RIL, purified (boiling, DEAE, Superdex 200, Mono Q)
- binding result [3]: binds

B4: Ala1-Ala2 (2xThr) (domain or fragment, Dictyostelium discoideum)
chain: MLDEIKRQYADVVSSRDKSVEQLKTLQAKNEELRNTAEEAEGQLDRAERSKKKAEFDLEEAVKNLEEETAKKVKAEKAMKKAETDYRSTKSELDDAKNVSSEQYVQIKRLNEELSELRSVLEEADERCNSAIKAKKTAESALESLKDEIDAANNAKAKAERKSKELEVRVAELEESLEDKSGTVNVEFIRKKDAEIDDLRARLDRETESRIKSDEDKKNTRKQFADLEAKVEEAQREVVTIDRLKKKLESDIIDLSTQLDTETKSRIKIEKSKKKLEQTLAERRAAEEGSSKAADEEIRKQVWQEVDELRAQLDSERAALNASEKKIKSLVAEVDEVKEQLEDEILAKDKLVKAKRALEVELEEVRDQLEEEEDSRSELEDSKRRLTTEVEDIKKKYDAEVEQNTKLDEAKKKLTDDVDTLKKQLEDEKKKLNESERAKKRLESENEDFLAKLDAEVKNRSRAEKDRKKYEKDLKDTKYKLNDEAATKTQTEIGAAKLEDQIDELRSKLEQEQAKATQADKSKKTLEGEIDNLRAQIEDEGKIKMRLEKEKRALEGELEELRETVEEAEDSKSEAEQSKRLVELELEDARRNLQKEIDAKEIAEDAKSNLQREIVEAKGR
notes: N-terminal methionine added before the myosin residues; Dictyostelium myosin-II heavy chain, a.a; 1,348-1,966 (Ala 1 through Ala 2); also called headless Ala1-Ala2 (2xThr); source: E. coli BL21-CodonPlus (DE3)-RIL, purified (boiling, DEAE, Superdex 200, Mono Q)
- binding result [3]: binds

B5: extended AD (2xAsp) (protein)
chain: MNVEFIRKKDAEIDDLRARLDRETESRIKSDEDKKNTRKQFADLEAKVEEAQREVVTIDRLKKKLESDIIDLSTQLDTETKSRIKIEKSKKKLEQTLAERRAAEEGSSKAADEEIRKQVWQEVDELRAQLDSERAALNASEKKIKSLVAEVDEVKEQLEDEILAKDKLVKAKRALEVELEEVRDQLEEEEDSRSELEDSKRRLTTEVEDIKKKYDAEVEQNTKLDEAKKKLTDDVDTLKKQLEDEKKKLNESERAKKRLESENEDFLAKLDAEVKNRSRAEKDRKKYEKDLKDDKYKLNDEAADKTQTEIG
- fold difference in solubility against extended AD (2xThr) [1]: extended AD (2xThr) and extended AD (2xAsp) show a four-fold difference in solubility

B6: extended AD (2xThr) (domain or fragment, Dictyostelium discoideum)
chain: MNVEFIRKKDAEIDDLRARLDRETESRIKSDEDKKNTRKQFADLEAKVEEAQREVVTIDRLKKKLESDIIDLSTQLDTETKSRIKIEKSKKKLEQTLAERRAAEEGSSKAADEEIRKQVWQEVDELRAQLDSERAALNASEKKIKSLVAEVDEVKEQLEDEILAKDKLVKAKRALEVELEEVRDQLEEEEDSRSELEDSKRRLTTEVEDIKKKYDAEVEQNTKLDEAKKKLTDDVDTLKKQLEDEKKKLNESERAKKRLESENEDFLAKLDAEVKNRSRAEKDRKKYEKDLKDTKYKLNDEAATKTQTEIG
notes: N-terminal methionine added before the myosin residues; Dictyostelium myosin-II heavy chain, a.a; 1,531-1,840; also called headless extended AD (2xThr); source: E. coli BL21-CodonPlus (DE3)-RIL, purified (boiling, DEAE, Superdex 200, Mono Q)
- binding result [3]: binds

B7: AD-Ala 2 (2xThr) (domain or fragment, Dictyostelium discoideum)
chain: MNVEFIRKKDAEIDDLRARLDRETESRIKSDEDKKNTRKQFADLEAKVEEAQREVVTIDRLKKKLESDIIDLSTQLDTETKSRIKIEKSKKKLEQTLAERRAAEEGSSKAADEEIRKQVWQEVDELRAQLDSERAALNASEKKIKSLVAEVDEVKEQLEDEILAKDKLVKAKRALEVELEEVRDQLEEEEDSRSELEDSKRRLTTEVEDIKKKYDAEVEQNTKLDEAKKKLTDDVDTLKKQLEDEKKKLNESERAKKRLESENEDFLAKLDAEVKNRSRAEKDRKKYEKDLKDTKYKLNDEAATKTQTEIGAAKLEDQIDELRSKLEQEQAKATQADKSKKTLEGEIDNLRAQIEDEGKIKMRLEKEKRALEGELEELRETVEEAEDSKSEAEQSKRLVELELEDARRNLQKEIDAKEIAEDAKSNLQREIVEAKGR
notes: N-terminal methionine added before the myosin residues; Dictyostelium myosin-II heavy chain, a.a; 1,531-1,966 (AD through Ala 2); also called headless AD-Ala2 (2xThr); source: E. coli BL21-CodonPlus (DE3)-RIL, purified (boiling, DEAE, Superdex 200, Mono Q)
- binding result [3]: binds

B8: AD (1xThr) myosin-II assembly domain (domain or fragment, Dictyostelium discoideum)
chain: MNVEFIRKKDAEIDDLRARLDRETESRIKSDEDKKNTRKQFADLEAKVEEAQREVVTIDRLKKKLESDIIDLSTQLDTETKSRIKIEKSKKKLEQTLAERRAAEEGSSKAADEEIRKQVWQEVDELRAQLDSERAALNASEKKIKSLVAEVDEVKEQLEDEILAKDKLVKAKRALEVELEEVRDQLEEEEDSRSELEDSKRRLTTEVEDIKKKYDAEVEQNTKLDEAKKKLTDDVDTLKKQLEDEKKKLNESERAKKRLESENEDFLAKLDAEVKNRSRAEKDRKKYEKDLKDTK
notes: N-terminal methionine added before the myosin residues; Dictyostelium myosin-II heavy chain, assembly domain, a.a; 1,531-1,824; also called headless AD (1xThr); 34-kDa assembly domain; source: E. coli BL21-CodonPlus (DE3)-RIL, purified (boiling, DEAE, Superdex 200, Mono Q)
- binding result [3]: binds

B9: AD (1xAsp) myosin-II assembly domain (domain or fragment, Dictyostelium discoideum)
chain: MNVEFIRKKDAEIDDLRARLDRETESRIKSDEDKKNTRKQFADLEAKVEEAQREVVTIDRLKKKLESDIIDLSTQLDTETKSRIKIEKSKKKLEQTLAERRAAEEGSSKAADEEIRKQVWQEVDELRAQLDSERAALNASEKKIKSLVAEVDEVKEQLEDEILAKDKLVKAKRALEVELEEVRDQLEEEEDSRSELEDSKRRLTTEVEDIKKKYDAEVEQNTKLDEAKKKLTDDVDTLKKQLEDEKKKLNESERAKKRLESENEDFLAKLDAEVKNRSRAEKDRKKYEKDLKDDK
notes: N-terminal methionine added before the myosin residues; Dictyostelium myosin-II heavy chain, assembly domain, a.a; 1,531-1,824; also called headless AD (1xAsp); source: E. coli BL21-CodonPlus (DE3)-RIL, purified (boiling, DEAE, Superdex 200, Mono Q)
- binding result [3]: binds
